From patent publication US20200002405A1 (ADMINISTRATORS OF THE TULANE EDUCATIONAL FUND, published 2020)
Like-named read-outs stand apart in the source and are kept apart here.

Columns and labels:
[1] = molecular target: T1, LASV Josiah (lineage IV) glycoprotein, full-length GP (Lassa virus, Josiah strain, UniProt P08669 2-491); assay: cell-based or functional assay
T1 sequence: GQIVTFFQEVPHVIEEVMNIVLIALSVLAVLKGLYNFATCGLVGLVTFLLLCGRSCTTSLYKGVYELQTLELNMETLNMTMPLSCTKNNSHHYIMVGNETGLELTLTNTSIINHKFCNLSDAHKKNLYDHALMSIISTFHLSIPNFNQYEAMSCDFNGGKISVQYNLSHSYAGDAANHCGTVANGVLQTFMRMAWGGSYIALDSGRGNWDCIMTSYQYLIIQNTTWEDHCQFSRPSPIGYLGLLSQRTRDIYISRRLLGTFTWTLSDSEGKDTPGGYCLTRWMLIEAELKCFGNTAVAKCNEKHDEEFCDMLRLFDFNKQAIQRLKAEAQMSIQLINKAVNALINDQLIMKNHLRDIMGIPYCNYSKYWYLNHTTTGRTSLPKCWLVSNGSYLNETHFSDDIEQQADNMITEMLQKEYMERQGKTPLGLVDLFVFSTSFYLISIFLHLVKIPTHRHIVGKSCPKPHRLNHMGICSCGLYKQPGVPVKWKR

[2] = molecular target: LASV 237 (lineage III) glycoprotein (Lassa virus, strain 237); assay: cell-based or functional assay
[3] = molecular target: LASV A19 (lineage II) glycoprotein (Lassa virus, strain A19); assay: cell-based or functional assay
[4] = molecular target: LASV Pinneo (lineage I) glycoprotein (Lassa virus, strain Pinneo); assay: cell-based or functional assay
[5] = molecular target: T2, LCMV WE strain GP (LCMV, WE strain, UniProt P07399 2-498); assay: cross-reactivity, immunofluorescence on GP-transfected 293T cells
T2 construct: whole, on cells
T2 sequence: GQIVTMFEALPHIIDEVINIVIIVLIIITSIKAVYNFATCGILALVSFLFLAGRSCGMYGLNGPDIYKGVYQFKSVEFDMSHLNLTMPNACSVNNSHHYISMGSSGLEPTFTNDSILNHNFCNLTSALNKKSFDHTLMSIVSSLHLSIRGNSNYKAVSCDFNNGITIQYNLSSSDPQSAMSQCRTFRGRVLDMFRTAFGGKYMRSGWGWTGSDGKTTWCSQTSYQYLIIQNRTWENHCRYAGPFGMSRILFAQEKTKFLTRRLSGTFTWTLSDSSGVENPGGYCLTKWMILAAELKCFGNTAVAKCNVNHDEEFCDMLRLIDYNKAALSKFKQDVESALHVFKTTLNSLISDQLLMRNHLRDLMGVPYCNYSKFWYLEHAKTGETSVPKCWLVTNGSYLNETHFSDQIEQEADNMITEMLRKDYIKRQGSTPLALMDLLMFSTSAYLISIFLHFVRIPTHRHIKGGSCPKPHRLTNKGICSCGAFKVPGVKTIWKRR

[6] = molecular target: T1, LASV Josiah (lineage IV) glycoprotein, …; assay: cell-based or functional assay; remark: listed apart in the source

Row | Binder | IC50 (neutralization) [1] [µg/mL] | IC80 (neutralization) [1] [µg/mL] | IC50 (neutralization) [2] [µg/mL] | IC80 (neutralization) [2] [µg/mL] | IC50 (neutralization) [3] [µg/mL] | IC80 (neutralization) [3] [µg/mL] | IC50 (neutralization) [4] [µg/mL] | IC80 (neutralization) [4] [µg/mL] | binding result [5] | IC50 (neutralization) [6] [µg/mL] | IC80 (neutralization) [6] [µg/mL]
1 | 37.2D (antibody, V domains shown) VH: EVQLVQSGAEVKKPGASVKVSCKASGYTFTKYGISWVRQAPGQGLEWMGWISAFNGYTRYGQRFQGKVTMTTDTSTNTASLEVRTLTSNDTAVYYCARQYPDQYSSSGWPRLFAMDVWGQGTTVIVSP VL: ETTLTQSPATLSVSPGETATLSCRASQNVINNLAWYQQKPGQAPRLLIYGASTRATGIPARFSGSGSGTEFTLTISSMQSEDFAVYYCQQYNDWPRSFGQGTRLDIRR | 0.559 | 1.98 | 0.256 | 0.844 | 0.469 | 1.15 | 0.537 | 1.86 | binds | 0.137 | 0.26
2 | 37.7H (antibody, V domains shown) VH: EVQLVQSGGGLVKAGGSLRLSCAASGFTFSTYSMNWIRQAPGKGLEWVASISSRSGSHINYVDSVKGRFTISRDNARDLLYLQMNSLRVDDSALYYCARDRRSGTSPLPLDVWGQGTTVTVFS VL: DQSALTQPASVSGSPGQSITISCTGTGSDIGGYNFVSWYQQYPGKAPKLIIYEVRIRASGVSNRFSGSKSGNTASLTISGLQAEDEADYYCNSYSIHSPWVFGGGTKLTVLR | 0.191 | 0.532 | 0.077 | 0.202 | 0.255 | 0.537 | 0.301 | 1.66 | binds | 0.134 | 0.214
3 | 37.2G (antibody, V domains shown) VH: EVQLVESGGGLVKPGGSRRLSCAASGFTFSRDTMTWVRQAPGKGLEWVASISSGSSDINYADSVKGRFTISRDNGKNSLYLHMNSLRADDTAIYYCARDPRSGISGRYGMDVWGQGTTVTVSS VL: DIVLTQSPGTLSLSPGERATLSCRASQSVNSIFLAWYQQKPGQAPRLLIYGASSRATGIPDRFSGSGSGTDFTLTISRLEPEDFAVYYCQQYHSSPKLTFGGGTKVEIKR | 5.6 | 16 | 2.02 | 5.23 | 1.1 | 10 | > 20 | > 20 | binds | 0.405 | 1.78
